From patent publication US20220041716A1 (BEIJING NEOLETIX BIOLOGICAL TECHNOLOGY, published 2022)

B1: sdAb 2-33TLT-His (VHH)
VHH: QVQLVESGGGLVQPGGSLTLSCAASGSIANIGGMAWYRRLPGNKRAMVASITSAGTASSYIDSVKGRFTISRDNAKNTVYLQMTSLKPEDTAVYLCKAWDRDLVDYWGQGIQVTVSS
notes: also called sdAb-2-33-His
B2: sTF209-PC1-sdAb 2-33TLT-His (other)
chain: MASMSGTTNTVAAYNLTWKSTNFKTILEWEPKPVNQVYTVQISTKSGDWKSKCFYTTDTECDLTDEIVKDVKQTYLARVFSYPAGNVESTGSAGEPLYENSPEFTPYLETNLGQPTIQSFEQVGTKVNVTVEDERTLVRRNNTFLSLRDVFGKDLIYTLYYWKSSSSGKKTAKTNTNEFLIDVDKGENYCFSVQAVIPSRTVNRKSTDSPVECGSGGGTGGGSGGSGGGTGGGSGAIEPRSFSQNQVQLVESGGGLVQPGGSLTLSCAASGSIANIGGMAWYRRLPGNKRAMVASITSAGTASSYIDSVKGRFTISRDNAKNTVYLQMTSLKPEDTAVYLCKAWDRDLVDYWGQGIQVTVSSHHHHHH
notes: the entry also holds vector-derived N-terminal residues; also called sTF209-PC1-dAb 2-33TLT-His; sTF209-sdAb 2-33TLT-His
B3: sdAb 2-90TLT-His (VHH)
VHH: QVQLVESGGGLVQAGGSLTLSCAASGSTSGINVMAWYRQAPGKQRELVANKARGGLPKYADFAKGRFTISRDNTKNTISLQMNSLKPEDTAVYYCNALLDWRLGDYWGQGTQVTVSS
notes: also called sdAb-2-90-His
B4: sTF209-PC1-sdAb 2-90TLT-His (other)
chain: MASMSGTTNTVAAYNLTWKSTNFKTILEWEPKPVNQVYTVQISTKSGDWKSKCFYTTDTECDLTDEIVKDVKQTYLARVFSYPAGNVESTGSAGEPLYENSPEFTPYLETNLGQPTIQSFEQVGTKVNVTVEDERTLVRRNNTFLSLRDVFGKDLIYTLYYWKSSSSGKKTAKTNTNEFLIDVDKGENYCFSVQAVIPSRTVNRKSTDSPVECGSGGGTGGGSGGSGGGTGGGSGAIEPRSFSQNQVQLVESGGGLVQAGGSLTLSCAASGSTSGINVMAWYRQAPGKQRELVANKARGGLPKYADFAKGRFTISRDNTKNTISLQMNSLKPEDTAVYYCNALLDWRLGDYWGQGTQVTVSSHHHHHH
notes: the entry also holds vector-derived N-terminal residues

How the values were obtained:
[1] = biological target: T1, human extracellular domain of TLT-1-Fc tagged protein (sTLT-1-Fc) (UniProt Q86YW5 16-162); experiment: ELISA
T1 chain: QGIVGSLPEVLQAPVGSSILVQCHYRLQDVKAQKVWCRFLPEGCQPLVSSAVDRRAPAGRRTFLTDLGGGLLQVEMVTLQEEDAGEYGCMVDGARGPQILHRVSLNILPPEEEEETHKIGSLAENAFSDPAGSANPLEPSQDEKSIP

[2] = biological target: T1, human extracellular domain of TLT-1-Fc …; experiment: ELISA
[3] = biological target: T2, human extracellular domain of TLT-1-Fc tagged protein (sTLT-1-Fc) (human, UniProt Q86YW5 16-162); experiment: ELISA, human TLT-1 extracellular domain coated, anti-His-HRP detection, Kd fitted from OD450
T2 construct: also called SILT-1-Fc; extracellular domain of human TLT-1; not shown: Fc tag
T2 sequence: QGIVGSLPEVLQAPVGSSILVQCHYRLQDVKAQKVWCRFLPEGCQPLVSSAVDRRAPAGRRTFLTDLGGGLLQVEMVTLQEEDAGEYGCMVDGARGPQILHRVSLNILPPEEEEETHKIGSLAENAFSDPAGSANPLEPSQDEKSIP
Procedure: The extracellular domain of human TLT-1 protein was coated onto a 96-well plate for ELISA. After 24 hours incubation at 4° C. and 2 hours of blocking at room temperature (RT) with the blocking buffer, increasing concentrations of ten anti-TLT-1 sdAbs, sTF₂₀₉-PC1sdAb 2-33TLT-His and sTF₂₀₉-PC2sdAb 2-90TLT-His proteins were added to the respective wells for 1-hour incubation at RT. Anti-His tag—HRP-labeled antibody was used to evaluate the binding.
The binding of sdAb 2-33TLT-His, sdAb 2-132TLT-His, sdAb 2-25TLT-His, sdAb 2-64 TLT-His, sdAb 2-90TLT-His, sdAb 2-127TLT-His, sdAb 2-2 TLT-His, sdAb 3-32TLTcur-His; sdAb 3-38TLT-His and sdAb 2-69TLT-His, sTF₂₀₉-PC1-sdAb 2-33TT-His and s TF₂₀₉-PC1-sdAb 2-90TLT-His proteins to the human extracellular domain of TLT-1-Fc tagged protein (sTLT-1-Fc) was analyzed using ELISA, sTLT-1-Fc (3 μg/ml) was immobilized onto a 96-well plate for 24 hours at 4° C. and each well immobilized with SILT-1-Fc was blocked with 2% BSA PBST (PBS plus 0.1% Tween 20) for 2 hours at room temperature (RT). Serial dilution (1000 nM to 0.001 nM) of TLT-sdAbs and sTF-sdAb fusion proteins was performed and diluted proteins were then added to the coated 96-well platelet and incubated for 1 hour. After 3 times of washing with PBST, anti-His HRP antibody was added and incubated for 1 hour at RT. The plate was then washed for 3 times to remove the excess HRP conjugate and 100 μL TMB substrate was then added and incubated for 10-15 mins. To stop the reaction of color development, 2M sulfuric acid was added to the well.

[4] = biological target: T3, mouse TLT-1 on activated mouse platelets (mouse, UniProt Q8K558 21-317); experiment: flow cytometry, collagen-activated mouse platelets in whole blood, FITC anti-His detection
T3 construct: whole, on cells
T3 sequence (looked up): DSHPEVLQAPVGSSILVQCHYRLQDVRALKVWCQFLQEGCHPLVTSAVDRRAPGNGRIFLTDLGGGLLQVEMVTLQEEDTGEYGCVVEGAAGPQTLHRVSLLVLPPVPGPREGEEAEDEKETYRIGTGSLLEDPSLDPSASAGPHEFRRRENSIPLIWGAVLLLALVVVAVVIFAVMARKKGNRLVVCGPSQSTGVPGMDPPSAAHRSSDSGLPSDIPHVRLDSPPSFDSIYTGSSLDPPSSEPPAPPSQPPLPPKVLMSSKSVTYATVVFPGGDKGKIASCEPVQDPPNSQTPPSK
Procedure: To prepare activated human platelets, ADP (5 and 20 μM) were preincubated with human whole blood and the above proteins were then added to the ADP-treated whole blood. To prepare activated mouse platelets, collagen, at either 5 μg/ml or 10 μg/ml, was preincubated with mouse whole blood and the above proteins were then added to the […] whole blood. The binding of the proteins with platelets was detected with FITC-labeled—anti-His tag antibody.
The binding capability of sdAb 2-33TLT-His, sdAb sTF₂₀₉-PC1-sdAb 2-33TLT-His and sTF₂₀₉-PC1-sdAb 2-90TLT-His proteins to both human and mouse resting and activated platelets was tested by FACS assay. Citrated human (3 donors) and mouse (12 mice) whole blood were collected at room temperature (RT) and 10 μL of whole blood was used for each sample. To activate human platelets, ADP (5 and 20 μM) was used, and incubated with whole blood for 10 min at room temperature (RT). To activate mouse platelet, Type I fibrillary collagen (5 and 10 ug/ml) was used and incubated with whole blood for 10 min at room temperature (RT). […] After incubation for 30 min at room temperature, all samples were fixed with 500 μL of 5% paraformaldehyde for 10 min at RT and. analyzed by FACS (LSR II, Beckon Dickinson, San Jose, Calif.).

[5] = biological target: T1, human extracellular domain of TLT-1-Fc …; experiment: ELISA; second row printed 2-33; plot key shows sdAb 2-90TLT-His

Binder	Kd [1] [nM]	Kd [2] [nM]	Kd [3] [nM]	binding result [4]	Kd [5] [nM]
B1	2.74	4.47	< 10	–	–
B2	–	2.28	< 10	–	–
B3	2.39	–	< 10	binds	2.67
B4	–	1.19	< 10	binds	–
